The values below are quoted from earlier work in paper PMC3466315.

In general, Kd refers to the constant that tells how readily two partners part at equilibrium.

The target in this data set is NifL 1-140 (Azotobacter vinelandii) (UniProt P30663). To be noted: cited from earlier work.

Sequence of NifL 1-140 (P30663 1-140): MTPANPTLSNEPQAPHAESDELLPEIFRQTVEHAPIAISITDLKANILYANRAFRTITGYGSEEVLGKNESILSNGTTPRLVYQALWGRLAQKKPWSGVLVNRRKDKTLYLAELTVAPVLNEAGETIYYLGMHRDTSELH

Regarding NifL 1-140 (from UniProt P30663), the Kd is 150 nM.
